# T1: human recombinant calbindin D28k (human, UniProt P05937 1-261, limits assumed)
# T1 sequence (looked up): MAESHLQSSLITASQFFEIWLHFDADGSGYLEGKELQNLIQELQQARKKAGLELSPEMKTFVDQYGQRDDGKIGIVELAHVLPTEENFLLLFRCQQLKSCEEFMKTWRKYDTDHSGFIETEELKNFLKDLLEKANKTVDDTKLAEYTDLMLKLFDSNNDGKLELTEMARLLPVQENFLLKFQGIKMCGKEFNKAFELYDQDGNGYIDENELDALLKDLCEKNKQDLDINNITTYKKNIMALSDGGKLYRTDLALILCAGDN
# Target: T1, human recombinant calbindin D28k
# Experiment: cell-based or functional assay
row,Molecule,% Inhibition of Calbindin Activation [%]
1,SYEHYP [Peptide 5 (Ser-Tyr-Glu-His-Lys-Pro)],56
2,IAAAYP [Peptide 8 (Ile-Ala-Ala-Ala-Tyr-Pro)],0
3,IAEAYP [Peptide 6 (Ile-Ala-Glu-Ala-Tyr-Pro)],0
4,IKEAYP [Peptide 3 (Ile-Lys-Glu-Ala-Tyr-Pro)],100
5,IKEKY [Peptide 9 (Ile-Lys-Glu-Lys-Tyr)],0
6,IAEKYP [Peptide 4 (Ile-Ala-Glu-Lys-Tyr-Pro)],89
7,IKAKYP [Peptide 2 (Ile-Lys-Ala-Lys-Tyr-Pro)],100
8,IKEKYP [Peptide 1 (Ile-Lys-Glu-Lys-Tyr-Pro)],78
9,KHIKPS [Peptide 7 (Lys-His-Ile-Lys-Pro-Ser)],56
10,KEK [Peptide 10 (Lys-Glu-Lys)],0

# Target: human brain inositol monophosphatase (IMPase), in postmortem crude homogenate (human) (UniProt P29218)
# Experiment: cell-based or functional assay
# Sequence of human brain inositol monophosphatase (IMPase), in postmortem crude homogenate (human) (P29218 whole entry): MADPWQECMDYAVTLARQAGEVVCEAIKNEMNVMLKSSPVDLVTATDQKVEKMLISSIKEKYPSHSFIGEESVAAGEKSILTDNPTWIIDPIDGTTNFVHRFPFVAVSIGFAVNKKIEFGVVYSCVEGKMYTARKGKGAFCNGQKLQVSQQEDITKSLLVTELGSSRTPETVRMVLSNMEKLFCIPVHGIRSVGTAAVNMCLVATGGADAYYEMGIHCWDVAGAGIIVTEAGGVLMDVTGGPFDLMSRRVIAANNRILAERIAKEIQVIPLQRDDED
row,Molecule,human brain IMPase activity [fold]
1,human recombinant calbindin D28k (from UniProt P05937 1-261),3

# From US20110076347A1 (BEN GURION UNIVERSITY OF THE NEGEV RESEARCH AND DEVELOPMENT …, published 2011)
